# Target: T1, recombinant human HER2 extracellular domain protein (human, UniProt P04626 23-652)
# T1 construct: range 23-652; Range is printed for the immunogen/panning protein; also called ErbB2; recombinant HER2 protein
# Experiment: BLI, Protein A capture
Binder,Kd,koff,kon
"2126-Hu-H26 (antibody, IgG1, name in Kabat numbering, V domains shown, IgG1/Cκ) VH: QVQLVQSGSELKKPGASVKVSCKASGYTFTDYSMHWVRQAPGQGLEWMGWINTDTGEPTYADDFKGRFVFSLDTSVSTAYLQISSLKAEDTAVYFCVRVGRYDYAMDYWGQGTTVTVSS VL: DIQMTQSPSSLSASVGDRVTITCKASQDVYTAVAWYQQKPGKAPKLLINSASYRYTGVPSRFSGSGSGTDFTLTISSLQPEDFATYYCQQHYSTPPTFGGGTKVEIK",11.1 nM,0.00119 s⁻¹,107000 M⁻¹ s⁻¹
"2126-Hu-H24 (antibody, IgG1, V domains shown, IgG1/Cκ) VH: QVQLVQSGSELKKPGASVKVSCKASGYTFTDYAMHWVRQAPGQGLEWMGWINTETGEPTYADDFKGRFVFSLDTSVSTAYLQISSLKAEDTAVYFCVRVGRYDYAMDYWGQGTTVTVSS VL: DIQMTQSPSSLSASVGDRVTITCKASQDVYTAVAWYQQKPGKAPKLLINSASYRYTGVPSRFSGSGSGTDFTLTISSLQPEDFATYYCQQHYSTPPTFGGGTKVEIK",7.7 nM,0.00083 s⁻¹,108000 M⁻¹ s⁻¹
"2126-Hu-H25 (antibody, IgG1, V domains shown, IgG1/Cκ) VH: QVQLVQSGSELKKPGASVKVSCKASGYTFTDYSMHWVRQAPGQGLEWMGWINTNTGEPTYADDFKGRFVFSLDTSVSTAYLQISSLKAEDTAVYFCVRVGRYDYAMDYWGQGTTVTVSS VL: DIQMTQSPSSLSASVGDRVTITCKASQDVYTAVAWYQQKPGKAPKLLINSASYRYTGVPSRFSGSGSGTDFTLTISSLQPEDFATYYCQQHYSTPPTFGGGTKVEIK",7.57 nM,0.000749 s⁻¹,99000 M⁻¹ s⁻¹
"2126-Hu-H23 (antibody, IgG1, V domains shown, IgG1/Cκ) VH: QVQLVQSGSELKKPGASLKVSCKASGYTFTDYSMHWVRQAPGQGLEWMGWINTETGEPTYADDFKGRFVFSLDTSVSTAYLQISSLKAEDTAVYFCVRVGRYDYAMDYWGQGTTVTVSS VL: DIQMTQSPSSLSASVGDRVTITCKASQDVYTAVAWYQQKPGKAPKLLINSASYRYTGVPSRFSGSGSGTDFTLTISSLQPEDFATYYCQQHYSTPPTFGGGTKVEIK",5.9 nM,0.000623 s⁻¹,106000 M⁻¹ s⁻¹

# The next binders have a lower Kd than those just listed; values first:
Kd,koff,kon,Binder
5.38 nM,0.000543 s⁻¹,101000 M⁻¹ s⁻¹,"2126-Hu-H22 (antibody, IgG1, V domains shown, IgG1/Cκ) VH: QVQLVQSGGELKKPGASVKVSCKASGYTFTDYSMHWVRQAPGQGLEWMGWINTETGEPTYADDFKGRFVFSLDTSVSTAYLQISSLKAEDTAVYFCVRVGRYDYAMDYWGQGTTVTVSS VL: DIQMTQSPSSLSASVGDRVTITCKASQDVYTAVAWYQQKPGKAPKLLINSASYRYTGVPSRFSGSGSGTDFTLTISSLQPEDFATYYCQQHYSTPPTFGGGTKVEIK"
3.08 nM,0.00035 s⁻¹,114000 M⁻¹ s⁻¹,"2126-Hu-H28 (antibody, IgG1, V domains shown, IgG1/Cκ) VH: QVQLVQSGSELKKPGASVKVSCKASGYTFTDYSMHWVRQAPGQGLEWMGWINTYTGEPTYADDFKGRFVFSLDTSVSTAYLQISSLKAEDTAVYFCVRVGRYDYAMDYWGQGTTVTVSS VL: DIQMTQSPSSLSASVGDRVTITCKASQDVYTAVAWYQQKPGKAPKLLINSASYRYTGVPSRFSGSGSGTDFTLTISSLQPEDFATYYCQQHYSTPPTFGGGTKVEIK"
2.61 nM,0.000246 s⁻¹,94300 M⁻¹ s⁻¹,"2126-Hu-H29 (antibody, IgG1, V domains shown, IgG1/Cκ) VH: QVQLVQSGSELKKPGASVKVSCKASGYTFTDYSMHWVRQAPGQGLEWMGWINTITGEPTYADDFKGRFVFSLDTSVSTAYLQISSLKAEDTAVYFCVRVGRYDYAMDYWGQGTTVTVSS VL: DIQMTQSPSSLSASVGDRVTITCKASQDVYTAVAWYQQKPGKAPKLLINSASYRYTGVPSRFSGSGSGTDFTLTISSLQPEDFATYYCQQHYSTPPTFGGGTKVEIK"
1.67 nM,0.000164 s⁻¹,97900 M⁻¹ s⁻¹,"2126-Hu-H27 (antibody, IgG1, V domains shown, IgG1/Cκ) VH: QVQLVQSGSELKKPGASVKVSCKASGYTFTDYSMHWVRQAPGQGLEWMGWINTGTGEPTYADDFKGRFVFSLDTSVSTAYLQISSLKAEDTAVYFCVRVGRYDYAMDYWGQGTTVTVSS VL: DIQMTQSPSSLSASVGDRVTITCKASQDVYTAVAWYQQKPGKAPKLLINSASYRYTGVPSRFSGSGSGTDFTLTISSLQPEDFATYYCQQHYSTPPTFGGGTKVEIK"
